{"source": "paper PMC7293038", "experiment_in_all_cases": "BLI; biotinylated Avi-tag-ZIgE-SpyCatcher loaded on streptavidin Octet tips (2.5 ug/ml, 60 s); IgE as analyte in PBST with 30 mg/ml skimmed milk; 300 s association, 400 s dissociation; 1:1 binding model assuming only partial dissociation; mean of three IgE concentrations", "key": {"[1]": {"target": "Avi-tag-ZIgE^33-SpyCatcher"}, "[2]": {"target": "Avi-tag-ZIgE^consensus-SpyCatcher"}, "[3]": {"target": "Avi-tag-ZIgE^44-SpyCatcher"}, "[4]": {"target": "Avi-tag-ZIgE^wild-type-SpyCatcher"}}}
{"substance": "IgE (native human monoclonal, Abcam ab65866) (antibody)", "values": [{"measurement": "Kd", "setting": "[1]", "result": 2.1, "unit": "µM"}, {"measurement": "Kd", "setting": "[2]", "result": 0.61, "unit": "µM"}, {"measurement": "Kd", "setting": "[3]", "result": 4.8, "unit": "µM"}, {"measurement": "Kd", "setting": "[4]", "result": 7.3, "unit": "µM"}]}
